B1: TPR 5TU (parent)
chain: GGAUCUUCUCGAUCUAACAAAAAAGACAAAUCUGCCACAAAGCUUGAGAGCAUCUUCGGAUGCAGAGGCGGCAGCCUUCGGUGGCGCGAUAGCGCCAACGUUCUCAACUAUGACACGCAAAACGCGUGCUCCGUUGAAUGGAGUUUAUCAUG

Consider 83 variants from the RNAGym collection of RNA variant scans (doi:10.1073/pnas.2313332121).

Fewer inactive variants are shown than the library holds. Where only a bound is given, the exact number is not on record here.

The variants in the data set derive from B1. The data set is described as follows: polymerase ribozyme fitness, log enrichment relative to wild type (log ratio); higher = more active; in vitro selection for triplet polymerase activity. The procedure, abridged: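 Streptavidin-bead capture of gel-excised extended constructs, followed by RT-PCR, closed a single triplicate in vitro selection round. That round began by annealing PCR-built, transcribed mutant libraries of each subunit of a heterodimeric triplet polymerase ribozyme with a biotinylated primer, the partner subunit and triplets, then incubating them frozen at −7 °C. After Illumina sequencing of inputs and outputs, genotypes needed ≥10 input reads and ≥1 read per output. Fitness is the base-2 logarithm of genotype enrichment over wild-type enrichment, using inverse-variance-weighted replicate averages.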
In the case of C8U A73U, the “polymerase ribozyme fitness (log ratio)” value was -3.97.

As for A21C A60G, the “polymerase ribozyme fitness (log ratio)” value is 0.714.

For A29G U78G G84C, the “polymerase ribozyme fitness (log ratio)” value is ≤ -4.2.

On to A17G C35U G83A, for which the “polymerase ribozyme fitness (log ratio)” value is -0.796.

For U56A C57A C85U C87U, the “polymerase ribozyme fitness (log ratio)” value is -0.523.

As for C10U A16G C43G U44G U77A U82A A120C, the “polymerase ribozyme fitness (log ratio)” value was ≤ -4.2.

Consider A19C C72A A107U G143A, for which the “polymerase ribozyme fitness (log ratio)” value is ≤ -4.2.

Turning to G83U C87U, the “polymerase ribozyme fitness (log ratio)” value was -1.25.

On to U104G, for which the “polymerase ribozyme fitness (log ratio)” value is -0.299.

As to U13A U55G C85U A121G, the “polymerase ribozyme fitness (log ratio)” value was -1.11.

Turning to G11A A91G, the “polymerase ribozyme fitness (log ratio)” value was -3.81.

In the case of C87G A110C U146G C149A, the “polymerase ribozyme fitness (log ratio)” value is ≤ -4.2.

For A52G G71U C96U, the “polymerase ribozyme fitness (log ratio)” value is -4.1.

Take U6G C35U C75A A98G A121U: the “polymerase ribozyme fitness (log ratio)” value was ≤ -4.2.

Regarding A39G G59C G71A U101C A115G G140U, the “polymerase ribozyme fitness (log ratio)” value was ≤ -4.2.

Take A20U U56A C76U G133A: the “polymerase ribozyme fitness (log ratio)” value is ≤ -4.2.

For C85A A107U A147C U151C, the “polymerase ribozyme fitness (log ratio)” value was ≤ -4.2.

For the variant C27A U33C C85A A106G U144A U151C, the “polymerase ribozyme fitness (log ratio)” value is ≤ -4.2.

Consider A23C A41U G68U C93U A106G, for which the “polymerase ribozyme fitness (log ratio)” value was ≤ -4.2.

As to A37G A64G G80A G88U G143A, the “polymerase ribozyme fitness (log ratio)” value is ≤ -4.2.

Consider C14A A39U A49C C57A C79G G86U, for which the “polymerase ribozyme fitness (log ratio)” value was ≤ -4.2.

C38A C57G U77G C79U A91G: the “polymerase ribozyme fitness (log ratio)” value was ≤ -4.2.

As for U13C C51G C54G C75U G83U, the “polymerase ribozyme fitness (log ratio)” value was ≤ -4.2.

As for A37C A60C C85U G126C U146C, the “polymerase ribozyme fitness (log ratio)” value is -2.23.

C54U U134A: the “polymerase ribozyme fitness (log ratio)” value is -2.84.

Consider A16C G25U C36U G59C C93U U104G G140C, for which the “polymerase ribozyme fitness (log ratio)” value is ≤ -4.2.

Turning to G92U U148A, the “polymerase ribozyme fitness (log ratio)” value is -2.71.

For the variant A122G G133U, the “polymerase ribozyme fitness (log ratio)” value was -3.59.

G59C C87A U109A G133C: the “polymerase ribozyme fitness (log ratio)” value is ≤ -4.2.

For C5G G50A U61G G62A A66C C96A U146A, the “polymerase ribozyme fitness (log ratio)” value is ≤ -4.2.

Take G94A C105U C116U C125G: the “polymerase ribozyme fitness (log ratio)” value was -0.0334.

Regarding G59U A60C, the “polymerase ribozyme fitness (log ratio)” value is -2.96.

As for G84A U145C, the “polymerase ribozyme fitness (log ratio)” value was -0.153.

On to C10U G74C G88C A110G, for which the “polymerase ribozyme fitness (log ratio)” value was ≤ -4.2.

Regarding C116G, the “polymerase ribozyme fitness (log ratio)” value stood at 0.655.

As to C79U C93A A98U A122U, the “polymerase ribozyme fitness (log ratio)” value was -4.

Turning to C14U C87A, the “polymerase ribozyme fitness (log ratio)” value is ≤ -4.2.

For the variant C38U A66G U82A C96U C125A U145A, the “polymerase ribozyme fitness (log ratio)” value was ≤ -4.2.

As for A12C U44A U56G G83U A89U C95A A98C C103G A107G, the “polymerase ribozyme fitness (log ratio)” value was ≤ -4.2.

Regarding U53A G70A C99A G124C, the “polymerase ribozyme fitness (log ratio)” value was ≤ -4.2.

For the variant C35G G50A G58A A66C C75A C87U, the “polymerase ribozyme fitness (log ratio)” value is ≤ -4.2.

In the case of A30C U31C C32A G46C G50C G58U G88C U104C A122G, the “polymerase ribozyme fitness (log ratio)” value was ≤ -4.2.

With G83C C116U A120C U135G, the “polymerase ribozyme fitness (log ratio)” value was -3.87.

Take A30G A64G G136C: the “polymerase ribozyme fitness (log ratio)” value was -4.07.

Take A20U U82A C93U U145G: the “polymerase ribozyme fitness (log ratio)” value is -2.69.

Regarding A106G A115U, the “polymerase ribozyme fitness (log ratio)” value is -1.05.

In the case of A110G A122G, the “polymerase ribozyme fitness (log ratio)” value was -2.84.

Regarding U61A C96G, the “polymerase ribozyme fitness (log ratio)” value was -2.6.

For the variant A30C G65A G67C G100A A119U, the “polymerase ribozyme fitness (log ratio)” value was ≤ -4.2.

In the case of A41U C85A A98G A122U G152U, the “polymerase ribozyme fitness (log ratio)” value was ≤ -4.2.

As for A26U C75A U82G G92U G100A A107U U144A, the “polymerase ribozyme fitness (log ratio)” value is ≤ -4.2.

On to G34C, for which the “polymerase ribozyme fitness (log ratio)” value is -1.49.

For the variant A22U G86A C93G C99A A138C, the “polymerase ribozyme fitness (log ratio)” value was ≤ -4.2.

As to C43U C75A C79U G86U C87U G117U A150C, the “polymerase ribozyme fitness (log ratio)” value was ≤ -4.2.

Consider A23C C87G A91G C99A C103G, for which the “polymerase ribozyme fitness (log ratio)” value was ≤ -4.2.

As for A29G A47U A49U G94A C131U, the “polymerase ribozyme fitness (log ratio)” value is ≤ -4.2.

With A22U C51U A137G A147C, the “polymerase ribozyme fitness (log ratio)” value was -2.48.

Turning to G58A U82C G92C A110U G136A, the “polymerase ribozyme fitness (log ratio)” value was ≤ -4.2.

With C51A A60G C95G U146C U151G, the “polymerase ribozyme fitness (log ratio)” value was ≤ -4.2.

C69G C99A A115G: the “polymerase ribozyme fitness (log ratio)” value is -3.71.

For G11C C14G A26U C105G U134G, the “polymerase ribozyme fitness (log ratio)” value was ≤ -4.2.

As to A21G U77A A91G, the “polymerase ribozyme fitness (log ratio)” value was ≤ -4.2.

Regarding A19U G81A, the “polymerase ribozyme fitness (log ratio)” value was -0.839.

Regarding A37G G58A G92C G140U, the “polymerase ribozyme fitness (log ratio)” value is ≤ -4.2.

Take C35U G140C: the “polymerase ribozyme fitness (log ratio)” value is -4.13.

Turning to A22U A115C, the “polymerase ribozyme fitness (log ratio)” value is -0.374.

In the case of A3G U31G G50A C95G C118G A138C U146A G152U, the “polymerase ribozyme fitness (log ratio)” value is ≤ -4.2.

Turning to A20C C63G G152A, the “polymerase ribozyme fitness (log ratio)” value was -2.4.

For the variant A12C C14A A29G G81A A91G C93U C103A, the “polymerase ribozyme fitness (log ratio)” value is ≤ -4.2.

On to C63U, for which the “polymerase ribozyme fitness (log ratio)” value was -0.0732.

On to C10U G84A, for which the “polymerase ribozyme fitness (log ratio)” value was -3.34.

Turning to A29U G65A C87A A91C U109G, the “polymerase ribozyme fitness (log ratio)” value was ≤ -4.2.

With G42A U55A, the “polymerase ribozyme fitness (log ratio)” value is -3.81.

Take U13A U61A C85U: the “polymerase ribozyme fitness (log ratio)” value was -2.01.

With G46U C85U A91C, the “polymerase ribozyme fitness (log ratio)” value is ≤ -4.2.

Consider A20C U90G C99U G136C, for which the “polymerase ribozyme fitness (log ratio)” value was ≤ -4.2.

On to G83C C85G C103A, for which the “polymerase ribozyme fitness (log ratio)” value was ≤ -4.2.

As for A40G A60G U61C G84A, the “polymerase ribozyme fitness (log ratio)” value was -3.52.

As to A47G G74A U101G A121C U145C, the “polymerase ribozyme fitness (log ratio)” value is ≤ -4.2.

Regarding U53A A150C, the “polymerase ribozyme fitness (log ratio)” value is -3.56.

Turning to A3U C8A U13G U90A C93A A107G G143C, the “polymerase ribozyme fitness (log ratio)” value is ≤ -4.2.

On to U9C U56A C76A C108G G143U A150G, for which the “polymerase ribozyme fitness (log ratio)” value is ≤ -4.2.

Consider A26U A30U A37C U61A A66C G67C C69U C87A C105A C125U, for which the “polymerase ribozyme fitness (log ratio)” value was ≤ -4.2.
